Test results from the nanobody polyreactivity screen of Harvey et al. (2022).

Test: yeast display, Sf9 membrane polyspecificity reagent, FACS + sequencing; frameworks hold sequencing errors
Method in brief: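 A nanobody's polyreactivity label depends on the gate it was sorted from. Yeast display cells were stained with 10% biotinylated, detergent-solubilized Sf9 membrane reagent for 1 hour at 4 °C, enriched on streptavidin microbeads and sorted by FACS. The low and high (top ~1%) gates were set on anti-HA fluorescence for expression and streptavidin fluorescence for reagent binding.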

Row | Sequence | polyreactivity (PSR sort gate)
1 | QVQLVESGGGLVQAGGSLRLSCAASGRIFWPYAMGWYRQAPGKERELVAAISWGDGTTYYADSVKGRFTISRDNAKNTVYLQMNSLKPEDTAVYYCAVELWPDYVTDIRYYDGFDYWGQGTQVTVSS | low polyreactivity
2 | QVQLVESGGGLVQAGGSLRLSCAASGRTFAYNAMGWYRQAPGKERELVADITWSGDSTYYADSVKGRFTISRDNAKNTVYLQMNSLKPEDTAVYYCAADYFGGPSYEFDYWGQGTQVTVSS | low polyreactivity
3 | QVQLVESGGGLLQAGGSLRISCAASGRTLFVYDMGWYRQAPGKERDLVAAITGDGSTNYADSVKGRFTISRDNAKNTVYLQMNSLKPEDPAVYYCNAGDRIGFWNTVEYNYWGQGTQVTVSS | low polyreactivity
4 | QVQLVESGGGLVQAGGSLSLSCAASGRTFQSYAMGWYRQAPGKERELVATITSRGGSTYYADSVKGRFTISRDNAKYTVYLQMNSLKPEVTAVYYCAKRFKSYLGYDYWGQGTQVTVSS | low polyreactivity
5 | QVQLVESGGGLVQAGGSLRLSCAASGRIFWGYAMGWYRQAPGKERELVARITSGGDTYYADSVKGRFTISRDNAKNTVYLQMNSLKPEDTAVYYCNADVGTEWDNYPEVDYWGQGTQVTVSS | low polyreactivity
6 | QVQLLESGGGLDQSGGSLRLSCAASGRIFTFNAMGWYRQAPGQERELVAAIRFRDGSTYYADSVKGRFTISRDNAKNNGYLQMYSLKPEDTAVYYSAATAYPWPYYYWGQGTQVTVSS | high polyreactivity
7 | QVQLVESGGGLVQAGGSLRLTCAASGSIFPYYAMGWYRQAPGKEREFVAVISRRGGSTYYADSVKGRFTISRDNAKNTVYLQMNSLKPEDTAVYYCNARGYNLLDDWGQGTQVTVSS | high polyreactivity
8 | QVQLVESGGGLVQAGGSLRLSCAASGYILRYYGLGWYRQAPGKERELVAAITRGVSTNYADSVKGRFSISRDNAKNTVYLKMNSLKPEDTAVYYCAAKYYPYSSLSKPWTMDYWGQGTQVTVSS | low polyreactivity
9 | QVQLVESGGGLVQAGGSLRLSCAASGRIFSYYAMGWYRQAPGKEREFVATITYAGGSTYYADSVKGRFTISRDNAKNTVYFQMNSLKPEDTAVYYCAARGYSYRGWRMDYWGQGTQVTVSS | high polyreactivity
10 | QVPLVESGGGLVQAGGSLRLSCAASGRTFWNYAMGWYRPAPGKERELVAVSRFSDGSTYYADSVKGRFTISRDNAKNTVYLQMNSLKPEDTAVDDGAAKGPRRWGSGFDYWGQGTQVTVSS | low polyreactivity
11 | QVQLVESGGGLVQAGGSLRLSCAASGSTFWYYTMGWYRQAPGKERELVAAISKSGTNTYYADSVKGRFTISRDQAKNTVYLQMNSLKPEDTAVDYCNALTKTGTPPDYDYWGQGTQVTVSS | high polyreactivity
12 | QVQLVESGGGLVQAGGSLRLSCAASGSNVAVYVMGWYRQAPGKERELVAAISISAARTYYADSVKGRFTISRDNAKNTVYLQMNSLKPEDTAVYYGAARLVFRNDSWGQGTQVTVSS | high polyreactivity
13 | QFQLVESGGGLVQAGGSLRLSSAASGFTFVYYVMGWYRQAPGKERELVAAINAGGGSTYYADSVKGRITISRDNAKNTVYLQMYSLKPEDTAVYSFNARVRVRWGRNWSSYYYWGQGTQVTVSS | high polyreactivity
14 | QVQLVESGGGLVQAGGSLRLSCAASGITFWGYAMGWYRQAPGKEREFVARINWSGGRTYYAESVKGRFTISRDNAKNTVYLQMNSLKPEDTAVYYCAATSLIYGYRTYDYWGQGTQVTVSS | high polyreactivity
15 | QVQHVESGGGLVQAGGSLRLSCAVSGRTFYYYAMGWYRQAPGKERELVAAISSSGGSTYYADSVKGRFTISRDNAKNTVYLQMNSLKPEDTAVYYCAAAARKVSVSRYLYYYWGQGTQVTVSS | high polyreactivity
16 | QVQLVESGGGLVQAGGSLRLTCAASGSTLYSYAMGWYRPAPGKERELVAAISKSGGRTYYADSVKGRFTISRDNAKISVYLEMNSLKPEDTAVYYCAGREKYTPALEVEYWGQGTQVTVSS | high polyreactivity
17 | QVQLVESGGGLVQAGGSLRLSCAASGGIFDYYAMGWYRQAPGKERELVAAISSSGGSTYYADSVKGRFTISRDNAKNTVYLQMNSLKPEDTAVYYCNADRRRRFGYWGQGTQVTVSS | high polyreactivity
18 | QVQLVESGGGLVQAGGSLRLSCAASGLIFYLYAMGWYRQAPGKERELVAAFTYSGGSTRYADSVKGRFTISRDNAKNTVYLQMNSLKPEDTAVYYCNADGTAPTEMDYWGQGTQVTVSS | low polyreactivity
19 | QVQLVESGGGLVQAGGSLRLSCAASGRIFRPYAMGWYRQAPGKERELVASITRGGSTDYADSVKGRFTISRDNAKNTVYLQMNSLKPEDTAVYYCNKVWRFGYYGSYYWGQGTQVTVSS | high polyreactivity
20 | QVQLVESGGGLVQAGGSLRLSCAASGRIFRRYVMGWYRQAPGKERELVARIRIRDSNTYYADSVKGRFTISRDNAKNTVYLQMNSLKPEDTAVYYCNADTWADRSTYDYWGQGTQVTVSS | low polyreactivity
21 | QEQHVESGGGLVQAGGSLRLSCAATGLIIYYYAMGWYRQAPGKEMEFVAAISTSGSRTYYADSVKGRFTISRDNAKNTVSLQMNSLKPEDTAVYYCAAEPGRSRYAWGYSYPYDYWGQGTQVTVSS | high polyreactivity
22 | QVQLVESGGGLVQAGGSLRLSCAATGRSFVHKAMGWYRQAPGKERELVAAISRGGSTYYADSVKGRFTISRDNAKNTVYLQMNSMKPEDTAVYYCAKERRYTGRRSYEFNYWGQGTHVTVSS | low polyreactivity

Row | Sequence | polyreactivity (PSR sort gate)
23 | QVQLVESGGGLVQAGGSLRLTCAASGSIFTYYVMGWYRQAPGKERELVATITGSSGSTYYADSVKGRFTISRDNAKNTVFLQMNSLKPEDTAVYYCATYGTLVYYYYPDMEYWGQGTQVTVSS | low polyreactivity
24 | QVQLVESGGGLVQAGGSLRLSSAAYGRIFAANANGWYRQAPGKERELVAAISSGGSTNYADSVKGRFTISRDNAKNTVYLPMISLKPEDTAVYYCAADASWYAYCYYYWGQGTQVTVSS | low polyreactivity
25 | QVQLVESGGGLVQAGGSLRLSCAASGSIFWRNVMGWYRQAPGKERELVAAISSGGSTYYADSVKGRFTISRDNAKNTVYLQMNSLKPEDTAVYYCAAPRYDYWGQGTQVTVSS | high polyreactivity
26 | QVQLVESGGGLVQAGGSLRLSCAASGNSFYFYAMGWYRQAPGKERELVAAIDLTDGSTYYADSVKGRFTISRDNAKNTVYLQMNSLKPEDTAVYYCAADWVTFYSYTEYDYWGLGTQVTVSS | low polyreactivity
27 | QVQLVESGGGLVQAGGSLRLSCAASGLTFRYYGMGWYRQAPGKERELVAAITSSGGSTRYADSVKGRFTISRDNAKNTVYLQMNSLKPEDTAVYYCAASTWYGYDYWGQGTQVTVSS | high polyreactivity
28 | QVQLVESGVGLVQAGGSLRLSCAASGIIFDDYAMGWYRQAPGKERELVAGINESGDSTYYADSVKGRFTISRDNAKNTVYLQMNSLKPEDTAVYYCAAQLYYWWYDYWGQGTQVTVSS | high polyreactivity
29 | QVQLVESGGGLVQAGGSLRLRCAASGRTFAINALGWYRQAPGKEREDVASITTSGGRTYYADSVKGRFTISRDNAKNTVYLQMNSLKPEDTAVYYCNAGSYVGSWRFPYYYWGQGTQVTVSS | high polyreactivity
30 | QVQLVESGGGLVQAGGSLRLSCAASGFIFNSNARGWYRQAPGKERELVAAISGLGGSTYYADSVKGRFTISRDNAKNTVYIQMNSLKPEDTAVYYCAADVTYGTKWAYDYWGQGTQVTVSS | high polyreactivity
31 | QVQLVESGGGLVQAGGSLRLSCAASGSTFGKNAMGWSRQAPGNERELVAGITSGGSTYYADSVKGRFTISRDNAKNTVYLQMNSLKPEDTAVYYCAAVRRWKYDWGQGTQVTVSS | high polyreactivity
32 | QVQLVESGGGLVQAGGSLRLSCAASGFTFYTFAMGLYRQAPGKERELVASITNGGGTYYADSVKGRFTNSRDNAKNTVYLQMNSLKPEDTAVFYCARRVYYWGRYKDEYNYWGQGTQVTVSS | high polyreactivity
33 | QVQLVESGGGLVQAGGRLRLSSAASGRIFTNYAMGWYRQAPGKERELVARISKRGGSTYYADSVKGRLTFSRDNAKNTVYLQMNSLKPEDTAVYYCNAVSNLYYYWGQGTQVTVSS | high polyreactivity
34 | QVQLVESGGGLVQAGGSLRLSCAASGLIFAQYAMGWYRQAPGKEREFVAAISYSGGNTYYADSVKGRFTISRDNAKNTVYLQMNSLKPEDTAVYYCAADYYWYHYAGWVGQYGYWGQGTQVTVSS | low polyreactivity
35 | QVQLVESGGGLVQAGGSLRLSCAASGFTLWLNAMGWYRQAPGKERELVAAITTSDDGTYYADSVKGRFTISRDNAKNSVYLQMNSLKPEDTAVYYCAADYYSVLYDYWGQGTQVTVSS | low polyreactivity
36 | QVQLVESGGGLVQAGGSLRLSCAASGRTFAIYTMVWSRQAPGKERELVATISGSAGNTYYADSVKGRFTISRDNAKNTVYLQMNSLKPEDTAVYNCAARQRKARQIVLLDYWGQGTQVTVSS | high polyreactivity
37 | QVQLVESGGGLVQAGGSLRLSCAASGRIFYINAMGWYRQAPGKERELVAAITSNGGSTYYADSVKGRFTISRDNAKNTVYLQMNSLKPEDTSVYYCAVSPRVPFRKPVFTPYNMYYWGQGTQVTVSS | high polyreactivity
38 | QVQLVESGGGLVQAGGSLRLSCAASGRTFYVYDMGWYRQAPGKERELVAAISTNYADSVKGRFTISRDNAKNTVYLQMNSLNPEDTAVYYCAADDIHYVIHAYYSSGVDYWGQGTQVTVSS | low polyreactivity
39 | QVQLVESGGSLVQAGGSLRLSCAASGSTFDYYAMGWYRQAPGKARELHAAIDWSGDSTYYADSVKGRFTISRDNAKNTVYLQMNSLKREDSAVYYCPADLDSRGTYGRYEYWGQGTQVTVSS | low polyreactivity
40 | QVQLVESGGGLVQAGGSLRLICAASGGTFYDYAMGWYRQAPGKERELVAAISASGDSTYYADSVKGRFTISRDNAKNTVYLQMNSLKPEDTAVYSCAAEFTAFDGFDYWGQGTQVTVSS | low polyreactivity
41 | QVQLVESGGGLVQAGGSLRLSCAASGRIFVGYAMGLYRQAPGKEREFVATITFSGSSTYYADSVKGRFTISRDNAKNTVYIQMNSLKPEDTAVYYCAVTLEDYTYVYWGQGTQVTVSS | low polyreactivity
42 | QVQLVESGGGLVQAGGSLRLSCAASGSIFAYYAMGWYRQAPGKERELVAAISRRGATTYYSDSVKGRFTISRDNAKNTVYLQMNSLKPEDTAVYYCAARTPYWTSYLRYWGQGTQVTVSS | high polyreactivity
43 | QVQLVESGGGLVQAGGSLRLSCAASGSIFWSYAMGWYRQAPGKERELVAVINWSGGSTYYADSVKGRFTISRDNAKNTVYLQMNSLKPEDTAVYYCNKDLGPTKRPFTFDYWGQGTQVTVSS | low polyreactivity
